Laboratory results: US12291570B2, “Treatment of metastatic pancreatic adenocarcinoma” (BioLineRx Ltd., priority 2018, dated 2025)
pIC50: −log10 of the molar value. Square brackets hold non-standard residues; d marks the D form. Ends that are not written are not given here. 2Nal = N[C@@H](Cc1ccc2ccccc2c1)C(=O)O; Cit = NC(=O)NCCC[C@H](N)C(=O)O

Tests used:
[1] = Solubility of BL-8040 powder; type: physicochemical
[2] = tested on: human keratinocytes and normal human hematopoietic cells; conditions: cited from earlier work
[3] = tested on: metastatic pancreatic adenocarcinoma (PDAC); conditions: cited from earlier work
CXCR4 = CXCR4 (Homo sapiens, UniProt P61073); conditions: read-out: IC50, binds to CXCR4 with high affinity; cited from earlier work
Sequence of CXCR4 (P61073 whole entry, species assumed): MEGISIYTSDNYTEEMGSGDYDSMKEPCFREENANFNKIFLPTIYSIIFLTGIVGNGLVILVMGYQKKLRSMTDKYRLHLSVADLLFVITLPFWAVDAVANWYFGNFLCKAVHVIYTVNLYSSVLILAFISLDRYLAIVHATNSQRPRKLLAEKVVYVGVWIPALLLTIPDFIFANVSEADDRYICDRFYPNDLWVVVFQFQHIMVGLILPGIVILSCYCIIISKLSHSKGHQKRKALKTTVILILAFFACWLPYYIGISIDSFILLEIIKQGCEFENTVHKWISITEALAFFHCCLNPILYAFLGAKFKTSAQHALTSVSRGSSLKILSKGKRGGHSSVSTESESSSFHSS

[4] = tested on: metastatic pancreatic cancer; conditions: metastatic/advanced pancreatic cancer; cited from earlier work

Substance | solubility in 0.45% Sodium Chloride (half normal saline) ([1]; 0.45% Sodium Chloride) | solubility in water ([1]; water) | effect on viability of human keratinocytes and normal human hematopoietic cells [2] | level of effector CD8 cells that express Granzyme B in the tumor microenvironment [3] | level of myeloid derived suppressor cells (MDSCs) in the tumor microenvironment [3] | pIC50 (CXCR4) | increase in median survival [4]
BL-8040 (RR[2Nal]CY[Cit]K[dK]PYR[Cit]CR-NH2; not fully specified (residue 1, N-terminus, bridges); cysteine pairing not given here) | freely soluble | freely soluble | did not affect the viability | increasing | decreasing | 8.35 to 9.27 | 
FOLFIRINOX |  |  |  |  |  |  | 4.3 months
